In publication PMC5577252:

Target: PSII-LHCII supercomplexes of sucrose gradient band α3 (α3G with glutaraldehyde) (pea (Pisum sativum L., endogenous in leaves)) (UniProt P06585)

## PSII-LHCII supercomplexes of sucrose gradient band α3 (α3G with glutaraldehyde) (from UniProt P06585 1-344; P06006 1-353; P06004 15-473; P14226 82-329; P27520 38-265)
  fast chlorophyll a fluorescence induction (OJIP), O–J curvature parameter C; control (sucrose gradient buffer with cations, paired): 0.35
  fast chlorophyll a fluorescence induction (OJIP), O–J curvature parameter C; no salts (salt-free buffer, unpaired): 0.14
  fast chlorophyll a fluorescence induction (OJIP), connectivity among PSII units parameter p; control (sucrose gradient buffer with cations, paired): 0.3
  fast chlorophyll a fluorescence induction (OJIP), connectivity among PSII units parameter p; no salts (salt-free buffer, unpaired): 0.13
  fast chlorophyll a fluorescence induction (OJIP), overall grouping probability p2G; control (sucrose gradient buffer with cations, paired): 0.21
  fast chlorophyll a fluorescence induction (OJIP), overall grouping probability p2G; no salts (salt-free buffer, unpaired): 0.15
  fast chlorophyll a fluorescence induction (OJIP), probability of connectivity between PSII units ω; control (sucrose gradient buffer with cations, paired): 0.2
  fast chlorophyll a fluorescence induction (OJIP), probability of connectivity between PSII units ω; no salts (salt-free buffer, unpaired): 0.06
